According to IntAct's records for PubMed 21111240:

Assays:
goga2_mouse Golga2 = goga2_mouse Golga2 (UniProt Q921M4)
straa_mouse Strada = straa_mouse Strada (UniProt Q3UUJ4)
Chain of straa_mouse Strada (Q3UUJ4 whole entry): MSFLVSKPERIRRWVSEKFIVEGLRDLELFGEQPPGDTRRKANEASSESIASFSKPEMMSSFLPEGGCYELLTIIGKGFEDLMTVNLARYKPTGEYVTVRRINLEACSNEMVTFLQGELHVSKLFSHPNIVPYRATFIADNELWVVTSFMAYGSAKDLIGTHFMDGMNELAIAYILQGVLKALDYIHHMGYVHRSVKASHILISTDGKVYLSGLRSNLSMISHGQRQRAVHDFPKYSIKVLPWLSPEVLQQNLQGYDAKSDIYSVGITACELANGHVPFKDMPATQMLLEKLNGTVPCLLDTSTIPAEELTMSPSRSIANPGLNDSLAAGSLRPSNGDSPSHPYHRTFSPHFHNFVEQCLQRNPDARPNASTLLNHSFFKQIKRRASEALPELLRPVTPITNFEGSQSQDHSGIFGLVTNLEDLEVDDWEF

Chain of Serine/threonine-protein kinase 25 (Mus musculus), Q9Z2W1 K49R (Q9Z2W1 whole entry K49R): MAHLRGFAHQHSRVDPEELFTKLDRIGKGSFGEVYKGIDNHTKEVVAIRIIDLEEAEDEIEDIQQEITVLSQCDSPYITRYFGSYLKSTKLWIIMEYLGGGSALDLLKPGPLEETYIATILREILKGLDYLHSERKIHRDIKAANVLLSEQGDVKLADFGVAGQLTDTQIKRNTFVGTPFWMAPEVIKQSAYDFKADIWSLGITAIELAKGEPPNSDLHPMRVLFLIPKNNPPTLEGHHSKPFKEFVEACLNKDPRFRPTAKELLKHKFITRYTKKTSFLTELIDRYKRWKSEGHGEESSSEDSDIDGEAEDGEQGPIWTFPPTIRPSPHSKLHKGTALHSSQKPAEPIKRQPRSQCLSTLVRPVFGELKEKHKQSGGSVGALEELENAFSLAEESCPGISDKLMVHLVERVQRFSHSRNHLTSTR
Chain of goga2_mouse Golga2 (Q921M4 whole entry): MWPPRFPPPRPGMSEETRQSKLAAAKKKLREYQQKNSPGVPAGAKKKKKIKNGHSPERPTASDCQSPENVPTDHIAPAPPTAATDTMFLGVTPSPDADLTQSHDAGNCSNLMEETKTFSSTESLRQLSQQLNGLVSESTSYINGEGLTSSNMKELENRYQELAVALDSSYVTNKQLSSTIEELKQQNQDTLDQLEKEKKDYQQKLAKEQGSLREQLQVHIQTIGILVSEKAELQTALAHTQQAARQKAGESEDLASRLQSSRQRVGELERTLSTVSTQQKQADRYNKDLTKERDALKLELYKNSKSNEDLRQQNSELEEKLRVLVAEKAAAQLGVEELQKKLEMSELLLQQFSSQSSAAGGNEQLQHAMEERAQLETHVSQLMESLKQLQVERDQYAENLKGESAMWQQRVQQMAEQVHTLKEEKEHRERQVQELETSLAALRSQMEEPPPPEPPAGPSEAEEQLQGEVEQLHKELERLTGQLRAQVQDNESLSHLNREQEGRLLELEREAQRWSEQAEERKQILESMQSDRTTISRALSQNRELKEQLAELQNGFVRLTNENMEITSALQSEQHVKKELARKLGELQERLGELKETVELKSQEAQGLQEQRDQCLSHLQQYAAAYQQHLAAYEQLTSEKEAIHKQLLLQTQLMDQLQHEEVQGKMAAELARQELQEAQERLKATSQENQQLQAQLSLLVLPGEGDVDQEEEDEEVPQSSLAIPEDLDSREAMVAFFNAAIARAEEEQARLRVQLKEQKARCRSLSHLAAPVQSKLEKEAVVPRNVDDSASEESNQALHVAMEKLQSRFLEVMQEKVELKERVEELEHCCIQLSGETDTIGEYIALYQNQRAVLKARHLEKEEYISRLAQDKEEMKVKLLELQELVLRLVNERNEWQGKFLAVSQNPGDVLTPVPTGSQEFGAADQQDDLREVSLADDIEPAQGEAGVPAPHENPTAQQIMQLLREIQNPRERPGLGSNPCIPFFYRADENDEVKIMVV

effect of a mutation on the interaction (goga2_mouse Golga2): increasing interaction | effect of a mutation on the interaction (straa_mouse Strada): decreasing interaction
Substance: Serine/threonine-protein kinase 25 (Mus musculus), Q9Z2W1 K49R
